The nature of this series: soluble on expression in E. coli; label from the status in PepcDB or PDB records.
As for “VFILPDCNPVLKFISSARERLLIIAPYIDFRWYKDDGLLEAIKGAKESGAEVKVVLNAKYAKEEAVSTLRKEGVKVELIDNLHGKAIVSDKRLLITSANMNMHGLKLNREIGVIINNPEMADAVIKEFEGGEVTPLD”, the “soluble on expression in E. coli” value is listed as “not soluble”.

Take “MGSDKIHHHHHHMKTIQPIDWLQPKTEAEEIRFRSTGFRWGNKGTHTSRTIMLDELRALLNYSRPDATRDDYVSVIIEDNCLGKRTASTRKLSLQRLSELYALDPKVLLFQLMRYFWYADRSGQAILPLLLALARDPLLRATAASVLCMHPGEEFARQPMTDALNQAAGGRFNEGTLNKIVRNAASSWTQTGHLKGRSHKVRQSIAPTAITTAYALLLGYLTGTRGAKLFETPWAQALDTPPSTLMHLAMDARRLGFLDMSQSGGIVELGFSRLLPLDERR”: the “soluble on expression in E. coli” value is “not soluble”.

In the case of “MTKTEPNNAQLDWLESESIHIIREVAAECENPALLFSGGKDSVVLLALACKAFRLGSRPVKLPFPLVHIDTGHNYPEVIAFRDAQAAKLNARLIVGRVEDSIAKGTVVLRKETDSRNAAQAVTLLETIEANGFDALMGGARRDEEKARAKERIFSFRDEFGQWDPKAQRPELWSLYNTRLHKGENMRVFPISNWTELDIWQYIARENLELPPIYYSHRREVVRRRGLLVPVTPLTPKMPSETSEILDVRFRTVGDISCTCPVESTASTPTEIIRETAVADISERSATRLDDQASEAAMEKRKKEGYF”, the “soluble on expression in E. coli” value is “not soluble”.

In the case of “MGSDKIHHHHHHMKVMKDYKLMAVGQIVADCFDYAKVFNKYGIDFCCNGDVSLADACGKMGIDADCLLEELKQIKSEQSLTLDFKSWPIDLLVDYILKFHHRNIRYQGPQILQLLDRVCEAHAGKHPELYEVRELFQESWIDLNNHLTKEEMVLFPYIYDLFDAVAQHRPIPAFHCGSVSSPISVMMSEHDAEGERFRRISGLTHGYLVPGDACSSYRLLLEMLRTFEDNLHHHIHLENNIVFPKAIELQENCE”, the “soluble on expression in E. coli” value is “not soluble”.

With “MGSDKIHHHHHHGCSFLIKEVNVKQENEAGEMVAYIKAGEIATFTFSGEINIDGDASNETFIVGFLAPRSWNVRQNATVTYREDRYETEVDHKMTVIPDTEQPANYKGMSWSAALKKKYGVRGNVLNDMEWIAFKSDNYPSVNGTIHYTVTIKCNSGKSNLKFRPSFFINHSSDGIGGDEAHYSVKDADDCFEVVEGSGTVIDFCSTHYYQIEPLSALQDDYVTFTFQGDINTNELIKAENVYIEATAYTIEGKIYTVNEKSAKTLMKRETKLPRYNVTLWPGGFFNIPDGETISRIEYIFTNEDGTVSISQSDDSRDNEGEEVEEGIKEPFVFEFQCE”, the “soluble on expression in E. coli” value was “not soluble”.

As for “MGSDKIHHHHHHMIEELAREIVKRFPRNHKETDPFRVLISTVLSQRTRDENTEKASKKLFEVYRTPQELAKAKPEDLYDLIKESGMYRQKAERIVEISRILVEKYGGRVPDSLEELLKLPGVGRKTANIVLWVGFKKPALAVDTHVHRISNRLGWVKTRTPEETEEALKKLLPEDLWGPINGSMVEFGRRICKPQNPLCEECFLKNHCEFYRRRGKGEVRNRTER”, the “soluble on expression in E. coli” value is reported as “not soluble”.

Turning to “MAGSNSRKPVVGMKIRVALVSALLAVSGCTTLSGKAPTLAPTPASTPPTSGKVTKSIISAMDGGLIGGSIGNGLSDEEKRSALEAEYKALEYTTSGQKVAWKGDQASHYGEVVPAQPYRVGSQDCRQYTQTVFTGGAGVTARGTACRNADGSWTPLTLEHHHHHH”, the “soluble on expression in E. coli” value was “soluble”.

Consider “MSLSATNTNLHDLLARRIPGHALEQPFYTSPEIYQQDLEHIFYREWLYAIPACQLVKPGSYATLRIGAYNIVIVKGRDGEIRAFHNSCRHRSSIVCKAREGQVAKLVCPYHQWTYDLDGKLIWANSMGPDFDPTQHGLRSVALRNLKGLIYICLADTPPDFEAFARAAEPYLGVHDLQDAKVAYSSSIIEKGNWKLVWENNRECYHCSGNHPALCRSFPLDPEVAGVSADGSISQRIQDHFDACAAAGAPAQFLLGGDGQFRLARMPLQETAVSYTMDGKAAVARQLGRVAKPDAGSLLVFHYPSTWNHFLPDHSLTFRVTPISPTETEVTTTWLVHKDAVEGVDYDLQHLTEVWIATNDEDREIVETNQEGIFSPAYIPGPYSPDWESGVIQFIDWYAAWMERSLAPSRMAAEEGHHHHHH”, for which the “soluble on expression in E. coli” value is on record as “soluble”.

Turning to “MSLKITAVKCILLSCPYAIPGDLEREFCFADGHRTISVIKVETDEGIHGLGETYIGVFAPEATQAIVRQLEVDLVGRDPMDTAGIANILKLATYYWGRFGMSASIAGGIEMALWDLKGKALGVPVHQLLGGKVHDHIPAYASGGNNKPFPELKKELLGYKKLGFGAVKIRINYLEPHEIIEKVAYSREVLGDKTGLGVDACQGVNPKAWNYKEAIGIVRSLEPYKLLFVEEPCEVTDYKGFAKIRAETDCVIAGGETVSSLVEAENYLEAGALDLFQPDAAIIGGISAFRRVAQMCERKFIKLAVHTWAGGVGIMGNYHAAFASPNCTLLELPNNPFPLREEFLVQPLTLVNGGIAAPTAPGLGVEGHHHHHH”, the “soluble on expression in E. coli” value was “soluble”.

Regarding “MGSDKIHHHHHHMPRHDDPRYFPISPLLIVPQALGSFSVFIRKDERLILYAKAGETFTERHSRRLHENGTSEVYVRVDQRQNFGLYLERHLAHILEDDRLPVEHRASAFHCATTELLRDTFGTRLPAPVDGILFERLQSLVTMSLRFLCEQGTLKALGQLLDCDFSAYSHSVNVYALTVPLLARLGYAQTDLVRTGLGVLLHDIGLARLPRAITRHRHSLTKHEEHIYRTHPTLGVGLVAQVPLSQEALHCIMLHHERLDGSGFPAGVKDENIPTAVRALAIADTYDLLTTAPGEARLTPFMALQLMRSEHHSTLDLYLLREFITMLSDAEMAGVWPDTLR”, the “soluble on expression in E. coli” value is listed as “not soluble”.

In the case of “MKRLRNKMTTEELAECLGVAKQTVNRWIREKGWKTEKFPGVKGGRARLILVDTQVCEFIQNTPAFHNTPMLMEAEERIAEYAPGARAPAYRQIINAIDNMTDIEQEKVAQFLSREGIRNFLARLDIDESA”, the “soluble on expression in E. coli” value is “not soluble”.

Turning to “MGSDKIHHHHHHMIFIPPFEQGKLLRRYKRFLADVLLDDGTEITIHCPNTGSMRNCLFPGERVWFSTSDNPKRKYAHTWEQAASDEGHIIGINTGRANALAAEAIEAGVISELTGYDRLRREVKYGSENSRIDLLLESEDKPACYIEVKSCTLLEQGQGYFPDAVTTRGQKHLRELMEMVKQGHRAVLLFVVQHTGITTVAAARHIDPEYAELLTQAHQAGVEILAYSCELSPSAAKLIKSCPVKL”, the “soluble on expression in E. coli” value was “not soluble”.

Consider “MAHHHHHHMKAVSIRQVSAIIILDNNGKRIAVKYYNDQAPLKGENKLVPKNTNKDLVSNAFENTYNNLRTVEDQKLFESDITEKARKLGGDSSETEVLVLNKFTILYLLINDVSIYIVGEESDNEIILHEIMQTVQQCLDNVTNNQIGKKQLLDKLDSIYLILDEIADSGIIMETNPNVIINRLYMHESDLQEHTPLNQAISSAKENIIRSLLSGT”, for which the “soluble on expression in E. coli” value is “not soluble”.

Regarding “MAAEIINGEKVIRKPNALYSDYPRKGGAASTATHYCPGCGHGVLHKLIAEAIDDLGIQDRTVMISPVGCAVFAYYYFDTGNIQVAHGRAPAVGTGVSRAEENAVVISYQGDGDLASIGLNETLQAANRGEKIAVFFVNNTVYGMTGGQMAPTTLIGEKTTTTPEGRDPRFAGYPLHMCELLDNLKAPVFIERVSVSDISHIRKARKAIRKALEVQRDGKGYAFVEVLAACPTNLRMDAEQAVSFINEEMEKEFPLRNFRDDSESTEPLYRGVSDFTTESLEKLYGIEADAGEKPVRADFAPIQTKIAGFGGQGVLSMGIVLAQAGVKANLNASWFPSYGPEQRGGTSNCSVVISGQPIGSPTVYTPDILIAMNRPSLERFEGAVRKGGFILYDSTIGEAETPEGVKAVSVPATEKAKEAGDERAANSFMLGVLLGLNATGLEEEAFKGALAENFAGKPRVIAFNQQMLEAGAEWARENVKI”, the “soluble on expression in E. coli” value was “not soluble”.

As to “SGCGGSRADAIEPRYYESWTRETESTWLTYTDSDAPPSAAAPDSGPEAGGLHSGMLEDGLPSNGVPRSTAPGGIPNPEKKTNCETQCPNPQSLSSGPLTQKQNGLQTTEAKRDAKRMPAKEVTINVTDSIQQMDRSRRITKNCVN”, the “soluble on expression in E. coli” value was “soluble”.

For the sequence “MGSDKIHHHHHHMSQLLRKPERAEISKGVTLVHDVTADNASLEYVSFKALDLSQGATYSETLENKECCIVVVTGKVHVTDHEVTFENIGTRESVFEKKPTDSVYVSNNQTFSIEAVTGARVALCYAPSKNQLPTKLIKAEDNGVEHRGKGNNQRMVHNILPDSDPSANSLLVVEVFTESGNWSSYPPHKHDRDLLPEESLLEETYYHEVNPKQGFVFQRVYTDDRSLDETMTVENENMVIVPKGYHPVGVPEGYASYYLNVMAGPKRIWKFFNDPAHEWIIE”, the “soluble on expression in E. coli” value is reported as “not soluble”.

Turning to “MGSSHHHHHHSSGLVPRGSMAQGLIEVERKFLPGPGTEERLQELGGTLEYRVTFRDTYYDTPELSLMQADHWLRRREDSGWELKCPGAAGVLGPHTEYKELTAEPTIVAQLCKVLRADGLGAGDVAAVLGPLGLQEVASFVTKRSAWKLVLLGADEEEPQLRVDLDTADFGYAVGEVEALVHEEAEVPTALEKIHRLSSMLGVPAQETAPAKLIVYLQRFRPQDYQRLLEVNSS”, the “soluble on expression in E. coli” value is “soluble”.

With “MAVQKNVIKGILAGTFALMLSGCVTVPDAIKGSSPTPQQDLVRVMSAPQLYVGQEARFGGKVVAVQNQQGKTRLEIATVPLDSGARPTLGEPSRGRIYADVNGFLDPVDFRGQLVTVVGPITGAVDGKIGNTPYKFMVMQATGYKRWHLTQQVIMPPQPIDPWFYGGRGWPYGHGGWGWYNPGPARVQTVVTE”, the “soluble on expression in E. coli” value is recorded as “not soluble”.

As to “MKGQVVSLHLGLGSGLPKPRVEALELVAGFGAKGDRHAGKDPDRAVLVAGLSAYEKAQGAGIPLPYGALGENLLLDLDPHALPPGARLRVGEALLELSQVCPVCKSLSQFDLRLPKLLYGGRGVYARVLEGGVVRVGDPVLVLAPAR”, the “soluble on expression in E. coli” value is on record as “soluble”.

“SLRYSKLTMLIPCALLLSACTTVTPAYKDNGTRSGPCVEGGPDNVAQQFYDYRILHRSNDITALRPYLSDKLATLLSDASRDNNHRELLTNDPFSSRTTLPDSAHVASASTIPNRDARNIPLRVDLKQGDQGWQDEVLMIQEGQCWVIDDVRYLGGSVHATAGTLRQSIENR”: the “soluble on expression in E. coli” value was “not soluble”.

In the case of “MAHHHHHHMNGMRAYNLGSRRYHDVLRLQEAIFRKKIDRQMRYIRGDKSARLIPNVVLLVEHSSPVYTIGRRDTSNGIKAGCAAEVVKTRRGGGVTFHGPGQVTMYPIVNVQVLWKQCTASDKPRSPIEWFSSVLEQAMINVAGEYNIPAHRGRVGVWSDSWGDVAPRKMGFVGLQLGNWVSMHGAGLNVSNNLLYFNDIVMCEMPNEAATSLVEELRLRGLSGAEPTPHVIAPRLLHHFLLSMQQQESVVNTELVDLSIDGSWERSILCELE”, the “soluble on expression in E. coli” value is “not soluble”.

As to “MSLIRSMTAYARREIKGEWGSATWEMRSVNQRYLETYFRLPEQFRSLEPVVRERIRSRLTRGKVECTLRYEPDVSAQGELILNEKLAKQLVTAANWVKMQSDEGEINPVDILRWPGVMAAQEQDLDAIAAEILAALDGTLDDFIIARETEGQALKVLIEQRLEGVTAEVAKVRAHMPEILQWQRERLIAKLEDAQVQLENNRLEQELVLLAQRIDVAEELDRLEAHAKETYNILKKKEAVGRRLDFMMQEFNRESNTLASKSINAEVTNSAIELKVLIEQMREQIQNIEEGHHHHHH”, the “soluble on expression in E. coli” value is “soluble”.

Source of the values: the DeepSol protein solubility set.
